Assay results taken from patent US20220372114A1 (CURIA IP, published 2022).
Several values for one entry are separate records, joined by “and”; a condition that tells them apart may be missing. Equal entries are not always repeated.

Assays:
[1] = target: SARS-CoV-2 spike protein on live wild-type virus (SARS-CoV-2, UniProt P0DTC2 14-1273); assay: cell-based or functional assay
[2] = target: SARS-CoV-2 (WIV02 isolate) prefusion stabilized spike trimer protein (SARS-CoV-2 (WIV02 isolate), UniProt P0DTC2 14-1213); assay: ELISA

Binder	IC50, BSL3 Vero E6 infection plaque assay [1]	binding result [2]
10-B13-A (human Fc IgG2 chimera) (antibody, V domains shown) VH: QVQLQQSGAELVKPGASVKISCKASGYAFSNYWMNWVKQRPGKGLEWIGQIYPGDGDTNYNGNFKGKATLTADKSSSTAYIQLSSLTSEDSAVYFCGRGFIATVVEVFDHWGLGTTLTVSS VL: DIQMTQTTSSLSASLGDRVTISCRASQDISNYLNWYQQKPDGTVKLLIYYTSRLQSGVPSRFSGSGTGTDYSLTISNLEQEDIATYFCQQGNTLPWTFGGGTKLEIK	0.21 µg/mL and 1.4 nM	–
5-P24-A (antibody, V domains shown) VH: QAYLQQSGAELVRPGASVKMSCKASGYTFTSYSMHWVKQTPRQGLEWIGAIYPGNGDTSYTQKFKGKATLTVDKSSSTAYMQLSSLTSEDSAVYFCARDYSNYPFDYWGQGTTLTVSS VL: not shown	–	binds
10-L12-A (antibody, V domains shown) VH: QAYLQQSGAELVRPGASVKMSCKASGYTFTSYSMHWVKQTPRQGLEWIGAIYPGNGDTSYNQKFKGKATLTVDKSSSTAYMQLSSLTSEDSAVYFCTRDYSNYPFDYWGQGTTLTVSS VL: DIVLTQSPASLAVSLGQRATISCRASKSVSTSGYSYLHWYQQKPGQPPKLLIYLASNLESGVPARFSGSGSGTDFTLNIHPVEEEDAATYYCQHSRELPPTFGGGTKLEIK	–	binds
4-K13-A (antibody, V domains shown) VH: QAYLQQSGAELVRPGASVKMSCKASGYTFTSYTVHWVKQTPRQGLEWIGAIYPGNVDTSYNQNFKGKATLTVDKSSSTAYMQLSSLTSEDSAVYFCARDGYYAMDYWGQGTSVTVSS VL: not shown	–	binds
7-B10-A (antibody, V domains shown) VH: EVQLVESGGGLVQPKGSLKLSCAASGFTFNTYAMHWVRQAPGKGLEWVARIRSKSSNYARYYADSVKDRFTISRDESQSMLYLQMNNLKTEDTAMYYCVRDHDYYGSSYWFAYWGQGTLVTVSA VL: DVVMTQTPLSLPVSLGDQASISCSSSQSLVHNNGNTYLHWYLQKPGQSPKLLIYKVSNRFSGVPDRFSGSGSGTDFTLKISRVEAEDLGVYFCSQSTHVPWTFGGGTKLEIK	–	binds
